Values quoted from earlier work as cited in US8021659B2, “Coenzyme Q10, lactoferrin and angiogenin compositions and uses thereof” (Naidu LP, priority 2006, dated 2011).

Tests used:
[1] = tested on: osteoblasts; conditions: up to

B1: LF: 79-kDa glycoprotein present in every mucosal secretion of the human body; metal-transport protein (protein, UniProt P02788 20-710, looked up)
Lactotransferrin: GRRRSVQWCAVSQPEATKCFQWQRNMRKVRGPPVSCIKRDSPIQCIQAIAENRADAVTLDGGFIYEAGLAPYKLRPVAAEVYGTERQPRTHYYAVAVVKKGGSFQLNELQGLKSCHTGLRRTAGWNVPIGTLRPFLNWTGPPEPIEAAVARFFSASCVPGADKGQFPNLCRLCAGTGENKCAFSSQEPYFSYSGAFKCLRDGAGDVAFIRESTVFEDLSDEAERDEYELLCPDNTRKPVDKFKDCHLARVPSHAVVARSVNGKEDAIWNLLRQAQEKFGKDKSPKFQLFGSPSGQKDLLFKDSAIGFSRVPPRIDSGLYLGSGYFTAIQNLRKSEEEVAARRARVVWCAVGEQELRKCNQWSGLSEGSVTCSSASTTEDCIALVLKGEADAMSLDGGYVYTAGKCGLVPVLAENYKSQQSSDPDPNCVDRPVEGYLAVAVVRRSDTSLTWNSVKGKKSCHTAVDRTAGWNIPMGLLFNQTGSCKFDEYFSQSCAPGSDPRSNLCALCIGDEQGENKCVPNSNERYYGYTGAFRCLAENAGDVAFVKDVTVLQNTDGNNNEAWAKDLKLADFALLCLDGKRKPVTEARSCHLAMAPNHAVVSRMDKVERLKQVLLHQQAKFGRNGSDCPDKFCLFQSETKNLLFNDNTECLARLHGKTTYEKYLGPQYVAGITNLKKCSTSPLLEACEFLRK
time to peak level in plasma (absorption in the intestinal tract): ≤ 2 h
mean fractional catabolic rate (elimination from the plasma by liver and spleen): 5.7 day⁻¹
reduction of the rate at which osteoblasts die [1]: 50-70%
